What was measured:
[1] = molecular target: T1, Unr CSD78 (A756-K922) (Drosophila, UniProt B7Z0E2 756-922); test: NMR titration
T1 sequence (looked up): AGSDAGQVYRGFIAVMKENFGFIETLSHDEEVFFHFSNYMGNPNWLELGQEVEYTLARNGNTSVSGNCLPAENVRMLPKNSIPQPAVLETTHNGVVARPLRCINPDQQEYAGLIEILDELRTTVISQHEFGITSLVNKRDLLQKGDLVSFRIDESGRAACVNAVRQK

[2] = molecular target: T2, Unr CSD789 (A756-D990) (Drosophila, UniProt B7Z0E2 756-990); test: NMR titration
T2 sequence (looked up): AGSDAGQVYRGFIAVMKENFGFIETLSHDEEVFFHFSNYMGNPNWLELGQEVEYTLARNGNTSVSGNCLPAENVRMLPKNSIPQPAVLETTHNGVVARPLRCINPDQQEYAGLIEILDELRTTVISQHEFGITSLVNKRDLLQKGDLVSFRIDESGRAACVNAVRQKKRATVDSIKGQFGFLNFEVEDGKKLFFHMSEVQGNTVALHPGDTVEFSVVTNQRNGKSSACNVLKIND

binding result [1]: binds | binding result [2]: binds
B1: pAbp RRM3 (G176-A263) (domain or fragment)
chain: not shown

From paper PMC9976900 (Nucleic Acids Research, 2022)
